Results reported in the nanobody polyreactivity screen of Harvey et al. (2022).

Assay: yeast display, Sf9 membrane polyspecificity reagent, FACS + sequencing; frameworks hold sequencing errors
Procedure, shortened: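 A nanobody's polyreactivity label depends on the gate it was sorted from. Yeast display cells were stained with 10% biotinylated, detergent-solubilized Sf9 membrane reagent for 1 hour at 4 °C, enriched on streptavidin microbeads and sorted by FACS. The low and high (top ~1%) gates were set on anti-HA fluorescence for expression and streptavidin fluorescence for reagent binding.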

Sequence | polyreactivity (PSR sort gate)
QVQLVESGGVLVQAGGSLRLSCAASGIIFYRNAMGWYRQAPGKERELVAAITSSGGRTYYADSVKGRFTISRDNAKNTVYLQMNSLKPEDTAVYYCAATRLYWKIFYGDGDYWGQGTQVTVSS | high polyreactivity
QVHLVESGGGLVQAGGSLRLSCSASGRIFRVYAMGWYRQPPGKERELVAAIDQRGGRTYYADSVKGRFTISRDNAKNTVYLQMNSLKPEDTAVYYCNAEYYVSSLVESEYWGQGSQVTVSS | low polyreactivity
QVQLVESGGGLVQAGGSLRLSCAASGYIFSTYTMGWYRQAPGKERELVATITVSGGSTYYADSVKGRFTISRDNAKNTVYLQMNSLKPEDTAVYYCAALRYTFAGRFDYWGQGTQVTVSS | high polyreactivity
QVQLVESGGGLVQAGGSLRLSCAASGFTFRQYAMGWYRQAPGKERELVAAISRSGSRTYYADSVKGRFTISRDNAKNTVYLQMNSLKPEDTAVYYCAARSYYNGKISRVGYWGQGTQVTVSS | high polyreactivity
QDQLVESGGGLVQAGGSLRLSCAASGFILGLNAMGWYRQAPGKEREFVADISWSGDSTYYADSVKGRFTISRDNAKNTVYLQMNSLKPEDTAFYYCAAVPYYNWGYYYWGQGTQVTVSS | low polyreactivity
QVQLVESAGGLVQAGGRLRVSCAASGFIFLYYPMGWYRKAPGKEREFVAAISWSDGNTYYADSVKGRFTISRDTAKNTDYLQMNSLKREDTAVYYCNARDADAWASGYDYWGQGTQLTVSS | low polyreactivity
QDQHVESGGGLLQAGGSLRLTCAAYGSIFTDYAMGWYRQPPGKERELVAAITRIGTRTYYADSVKGRFTISRDNAKNTVYLQMNSLKPEDTAVYYCAASGYSPVRWVWLYYWGQGTQVTVSS | high polyreactivity
QVQLVESGGGLVQAGGSLRLSCAASGRTFSWYVMGWYRQAPGKERELVAAISWNGGRTYYADSVKGRFTISRDNAKNTVYLQMNSLKPEDTAVYYCNRDYYWRDGAKYIDDYWGQGTQVTVSS | high polyreactivity
QVQLVESGGGLVQAGGSLRLSCPASGSISRQYAMGWYRQAPGKERELVAAITVRGGSTYYADSVKGRFTISRDNAKNTVYLQMNSLKPEDTAVYYCAKYTRYSASYDYWGQGTQVTVSS | high polyreactivity
QVQLVESGGGLVQAGGSLRLTCAASGSTFRLYAMGWYRQAPGKERELVAGISRTGTSTYYADSVKGRFTISRDNAKTTVFLQMNSLKPEDTAVYYCAASIGGGSYWGQGTQLTVSS | high polyreactivity
QVQLVESGGGLVQAGGSLRLSCAASGRTFSSYAMGWYRQAPGKERELVADINRSGGSTYYADSVKGRFTISRDNAKNTVYLQMNSLKPEDTAVYYCNVRIWPWYGYDYWGQGTQVTVSS | low polyreactivity
QVQLVESGGGLVQAGGSLRLSCAASGFIFIRNAMGWYRQAPGKQRELVATIRYSGGNTYYADSVKGRFTISRDNAKNTVYLQMNSLNPEDTAVYYCAAGSGYWGRSPTRCGQGGYWGQGTQVTVSS | high polyreactivity
QVQLVESGGGLVQAGDSLRLSCAASGFIFYYYTMGWYRQAPGKEREFVAAITYSGGRTYYADSVKGRFTISRDNAKNTVYLQMNSLKPQDTAVYYCADVPRYGPSSRMDYWGQGTQVTVSS | high polyreactivity
QVQLVESGGGLVQAGGSLRLSCAASGSTIDHNAMGWYRQAPGKERELVATISSSGGSTYYADSVKGRFTISRDNAKNTVYLQMNSLKPEDTAVYYCAVRAYYWRSYPYNYWGQGTQVTVSS | high polyreactivity
QVQLVESGGGLVQAGGSLRLSCAASGSIFISYAMGWYRQAPGKERELVAAISSGGSTNYADSVKGRFTISRDNAKNTVYLQMNSLKPEDTAVYYCAADGWLWSFTGDGWWFVYWGQGTQVTVSS | low polyreactivity
QVQLVEAGGGLVQAGGRLRLSSAASGNIFIWYALGWYRQAPGKERELVAAIRWSGGGTYYADSVKGRFTISRDNAKNTVYFQMNSLKPEDTAVYYCAAESSASWYNFWGYEYWGQGTQVTVSS | high polyreactivity
QVQLVESGGGLVQAGGSLRLSCAASGSTFAEYAMGWYREAPGKERELVADITWSGGSTYYADSVKGRFTISRDNAKNTVYLQMNSLKPDDTAVYYCYFWPVFYDFYLYGYWGQGTQVTVSS | low polyreactivity
QVQLVESGGGLVQAGGSLRLSCAASGIIFKEYALGGYRQAPGKERELVARITGSTGSTYADSVNGRFTISRDNAKNTVYLQMNSLKPEDTAVYYCAKYIGRGERLSDTRYGLDYWGQGTQVSVSS | low polyreactivity
QVQLVESGGGLVQAGGSLRLSCAASGRIFRGNAMGWYRQAPGKERELVAAINYSGGSTYYADSVKGRFTISRDNAKNTVYLQMNSLKPEDTAVYYCAAEPGQYGWYYGYGYWGQGTQVTVSS | high polyreactivity
QVQLVESGGGLVQAGGSLRLSCAASGFIFPWYAMGGYRQAPRKERELVAAITSGGTTYYADSVKGRFTISRDNAKNTVYLQMNSLKPEDTAVYYCAAQYYFYPHEFDYWGQGTQVTVSS | low polyreactivity
QVQLVESGGGLVQAGGSLRLTCAASGSIFEPYTKGWYRQAPAKERELVAAITGSGGSTFYADSVKARFTISRDNAKNTVYLQMNSLKPEDTAVYYCNANAYPYTDVDYWGQGTQVTVSS | low polyreactivity
QVQLVESGGGLVQAGGSLRLSCDASGLIFWRNAMGWYRQAPGKERELVAGITSGGSTYYADSVKGRFTISRDNAKNTVYLQMNCLKPEDTAVYYCAKSTWQSYYYPRGSVYWGQGTQVTVSS | high polyreactivity

Sequence | polyreactivity (PSR sort gate)
QVQLVESGGGLVQAGGSLRLSCAASGLIFSVYVMGWYRQAPGKERELVAGITTGGSTKYADSVKGRFTISRDNAKNTVYLQMNSLKPEDTSVYYCAVGKYNYRGSWDYYWGQGTQVTVSS | high polyreactivity
QVQLVESGGGLVQAGVSLRLSCAASGSIFGWYAMGWYRQAPGKERELVAGITRSGGSTYYADSVKGRFTISRDNAKNNVYLQMDSLNPEDTAVYYCNADLYRKRAWGSRDGSWGQGTQVTVSS | low polyreactivity
QVQLVESGGGLVQAGGSLRLSCAASGRTFVYNAMGWYRQAPGKERELVATITSSGNTYYADSVKGRFTISRDNAKNTVYLQMNSLKPEDTAVYYCNRRYWTSGYWGQGTQVTVSS | high polyreactivity
QVQLVETGGGLVQAGGSLRLSCAASGSTFEYNAMGWYRQAPGKERALVAGISSGGSTYYADSVKGRFTISRDNAKNTVYLQMNSLKPEDTAVYYCATSEASFATWDRYTELDYWGQGTQVTVSS | low polyreactivity
QVQLVESGGGLVQAGGSLRLSCAASGSTSKWYAMGWYRPAPGKERELVAAITKTGGRTYYADSVKGRFTISRDNAKNTVYLQMNSLKPEDTAVYYCAVEYLRGFIVIYDYWGQGTQVTVSS | high polyreactivity
QVQLVESGGGLVQAGGSLRLSCAASGSTFPSNAMGWYRQAPGKERELVAAISSGGRTYYADSVKGRFTISRDNAKNTVYLQMNSLKPEDTAVYYCAADTDRRSPFDYWGQGTQVTVSS | high polyreactivity
QVQLVESGGSLVQAGGSLRLSCAATGRIFGPYAMGWYRQAPGKERELVATITWSGVSTYYADSVKGRFTLSRDNAKNTVYLQMNSLKPEDTAVYFCAADPQVIYRGFYQRDYWGQGTQVTVSS | low polyreactivity
QVQLVESGGGLVQAGGSIRLSCAASGSTFKTYVMGWYRQAPGKERELVAAISFSDGTTYYADSVKGRFTISRDNAKNTVYLQMNSLKPEDTAVYYCAAEGYQSQYDYWGQGTQVTVSS | high polyreactivity
QVQLVESGGGLVQAGGSLRLSCAASGRIISVYAMGWYRQAPGKERELVATITGGNTNYADSVKGRFTISRDNAKNTVYLQMNSLKPEDTAVYYCAKQFLPSGVYYEYDSWGQGTQVTVSS | low polyreactivity
QVQLVESGGGLVQAGGSLRLSCAASGRTFYFYTMGWYRQAPGIERELVATIRWSAGSTYSADSVKGRFTISRDNAKNTVYLQMTSLKPEDTAVYYCNADPYVYSSWQYGYWGQGTQVTVSS | high polyreactivity
QVQLVESGGGVVQAGGSLRLSCAASGFIFYQYAMGWYRQAPGKERELVAAITSRGGRTYYADSVKGRFTISRDNAKNTVYLQMNSLKPEDTAVYYCAVRKASDYYYWGQGTQVTVSS | high polyreactivity
QVQLVESGGGIVQAGGSLRLSCAASGFTFTRYAMGSYRQAPGKERELVATITKRGGSTYYADSVKGRFTISRDNAKNTVYLKMNSLKPEDTAVYYCAADGASRALYDYWGQGTQVTVSS | high polyreactivity
QVQLVESGGGLVQAGGSLRLSCAASGLIFKYYAMGWYRQAPGKERELVASISRGGVTTYYADSVKGRFTISRDNAKNTVYLQMNSLKPEDTAVYYCAARFRYAPFYHWGQGTQVTVSS | high polyreactivity
QVQLVESGGGLVQAGCSLRLSCAASGFTFSYYAMGSYRQAPGKERELVASISRSGNTYYADSVKGRFTISRDNAKNTVYLQMNSLKPEDTAVYYCAAKRKSYYSYNFDYWGQGTQVTVSS | high polyreactivity
QVQLVESWAGLVQAGGSLRLSCAASGIIFHFNDMGWYRQAPGKERELVAAITSGGSTNYADSVKARFTISRDNAKNNVYLQMNSLKPEDTAVYYCAARRGLRLFAYSHGYWGQGSQVTVSS | low polyreactivity
QVQLVESGGGLVQAGVSLRLSCAASGNTFWVYAKGSYRQAPGKARELVAAMTRGGSTNYEDSVKGRFTISRDNAKNTVYFQMNSLKPEDTAGYYCAAESFIYFPYKMDYWGQGTQVTVSS | low polyreactivity
HVQLVESGGGLVQAGGSLRLSCAASGSTFKRYAMGGDRQAPGKEREFVAGISWRGGSTYYADSVKGRFTISRDNAKNTVYLQMNSLKPEDTAVYFCAARSFSNIGYHGYGYWGQGTQVTVSS | high polyreactivity
QVQLVESGGGLVQAGGSHRLSCAAYGRTFGVYAMGWYRQAPGKERELVAAISSRGGSTYYADSVKGRFTISRDNAKNSVYLQMNSLKPEDTAFYYCAAPWYQGLDYWGQGTQVTVSS | high polyreactivity
QVQLVESGGGLVQAGGSLRLSCAASGSISKINAMGWYRQAPGKERELVAAINTGDSTYYADSVKGRFTISRDNAKNTVYLQMNCLKPEDTAVYYCAAEGSPTGYDYWGQGTQVTVSS | low polyreactivity
QVQLVESGGGLVQAGGSLRLSCAASGSTFRYAMGWYRQAPGKERELVATISSGGSTNYADSVKGRFTISRDNAKNTVYLQMNSLKPEDTAVYYCAADPYGGDNDKGDYWGQGTQVTVSS | low polyreactivity
QVQLVESGGGLVQAGGSLRLSCAASGSILSPYAMGWYRQAPGKERELVAAISRSGDRTYYADSVKGRFTISRDNAKNTVYLQMNSLKPEDTAVYYCAAEYSWPWDYYYWGQGTQVTVSS | high polyreactivity
